In one assay the target is CD3 on Jurkat cells. Description: flow cytometry, culture supernatant on Jurkat cells.
The next assay has as its target T1, CD3-His蛋白(MP-5).
T1 chain: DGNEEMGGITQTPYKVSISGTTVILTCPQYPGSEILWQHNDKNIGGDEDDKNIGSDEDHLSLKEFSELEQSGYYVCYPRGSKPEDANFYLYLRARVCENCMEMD
Description: BLI (Octet RED96) off-rate screen, sdAb-SASA from expression medium captured on BSA-coated biosensor, 100 nM CD3 in solution, 1:1 Langmuir model, 30°C.

B1: C84 (VHH)
VHH: QVQLQESGGGLVQAGGYLRLSCAVSGRTFSSYAMGWFRQAPGKEREFVAAINWSGGSTYYVDSVKGRFTISRDNAKNTVYLQMNSLKPEDTAVYYCAASGLGYTIVSASEYDYWGQGTQVTVSS
notes: Llama sdAb tested as sdAb-SASA protein in crude expression medium / culture supernatant; 3 nowhere in its text; also called 抗CD3单域抗体; sdAb; not shown: SASA fusion partner from the pFASEBA vector (sdAb-SASA protein)
The molecule B1 displayed an MFI with CD3 on Jurkat cells of 312 MFI. Besides, in the assay with CD3-His蛋白(MP-5), the koff was 2.84e-05 s⁻¹.

B2: C62 (VHH)
VHH: QVQLQESGGGLVQAGGSLRLSCAASGRTFSNYHMGWFRQAPGKERELVAAISGSGGSTYYTDSVKGRFTISRNNAKNTMSLQMSNLKPEDTGVYYCTTPTEKGSSIDYWGQGTQVTVSS
notes: Llama sdAb tested as sdAb-SASA protein in crude expression medium / culture supernatant; 1 nowhere in its text; also called 抗CD3单域抗体; sdAb; not shown: SASA fusion partner from the pFASEBA vector (sdAb-SASA protein)
In the assay with CD3 on Jurkat cells, B2 came in with an MFI of 283 MFI. In addition, the koff in the assay with CD3-His蛋白(MP-5) was 5.32e-05 s⁻¹.

The values above are taken from patent CN106146662A (UNIV SUN YAT SEN, dated 2016).
